The results in this text go back to article PMC1262730, “Purification and kinetic studies of recombinant gibberellin dioxygenases” (BMC Plant Biology, 2005).

Substrate in this series: C=C1C[C@]23C[C@@]1(O)CC[C@H]2[C@@]12CCC[C@@](C)(C(=O)O1)[C@H]2[C@@H]3C(=O)O
Description: tritiated water release from [3H3]GA20, Michaelis-Menten fit (Origin). Format: biochemical, Arabidopsis thaliana. The note with it: labelled compound (possible tritium isotope effect), 4 mM 2-oxoglutarate, 0.5 mM FeSO4, 4 mM ascorbate, 4 mM DTT, BSA, catalase, 100 mM Tris-HCl pH 7.9, 30 °C.

B1: AtGA3OX4 (Arabidopsis thaliana) (protein)
chain: MPSLAEEICIGNLGSLQTLPESFTWKLTAADSLLRPSSAVSFDAVEESIPVIDLSNPDVTTLIGDASKTWGAFQIANHGISQKLLDDIESLSKTLFDMPSERKLEAASSDKGVSGYGEPRISPFFEKKMWSEGFTIADDSYRNHFNTLWPHDHTKYCGIIQEYVDEMEKLASRLLYCILGSLGVTVEDIEWAHKLEKSGSKVGRGAIRLNHYPVCPEPERAMGLAAHTDSTILTILHQSNTGGLQVFREESGWVTVEPAPGVLVVNIGDLFHILSNGKIPSVVHRAKVNHTRSRISIAYLWGGPAGDVQIAPISKLTGPAEPSLYRSITWKEYLQIKYEVFDKAMDAIRVVNPTN
notes: pET32 Xa/LIC N-terminal poly(His)-thioredoxin fusion expressed in E. coli BL21 (DE3), tag cut at engineered thrombin site, Superdex 75
Take B1: the Km worked out at 0.82 µM.

What is called Km is the substrate concentration at which the rate is half of its maximum.
